{"source": "patent US20110014635", "key": {"[1]": {"test_system": "T1, Alcadein α (human Alcα1)", "T1 sequence": "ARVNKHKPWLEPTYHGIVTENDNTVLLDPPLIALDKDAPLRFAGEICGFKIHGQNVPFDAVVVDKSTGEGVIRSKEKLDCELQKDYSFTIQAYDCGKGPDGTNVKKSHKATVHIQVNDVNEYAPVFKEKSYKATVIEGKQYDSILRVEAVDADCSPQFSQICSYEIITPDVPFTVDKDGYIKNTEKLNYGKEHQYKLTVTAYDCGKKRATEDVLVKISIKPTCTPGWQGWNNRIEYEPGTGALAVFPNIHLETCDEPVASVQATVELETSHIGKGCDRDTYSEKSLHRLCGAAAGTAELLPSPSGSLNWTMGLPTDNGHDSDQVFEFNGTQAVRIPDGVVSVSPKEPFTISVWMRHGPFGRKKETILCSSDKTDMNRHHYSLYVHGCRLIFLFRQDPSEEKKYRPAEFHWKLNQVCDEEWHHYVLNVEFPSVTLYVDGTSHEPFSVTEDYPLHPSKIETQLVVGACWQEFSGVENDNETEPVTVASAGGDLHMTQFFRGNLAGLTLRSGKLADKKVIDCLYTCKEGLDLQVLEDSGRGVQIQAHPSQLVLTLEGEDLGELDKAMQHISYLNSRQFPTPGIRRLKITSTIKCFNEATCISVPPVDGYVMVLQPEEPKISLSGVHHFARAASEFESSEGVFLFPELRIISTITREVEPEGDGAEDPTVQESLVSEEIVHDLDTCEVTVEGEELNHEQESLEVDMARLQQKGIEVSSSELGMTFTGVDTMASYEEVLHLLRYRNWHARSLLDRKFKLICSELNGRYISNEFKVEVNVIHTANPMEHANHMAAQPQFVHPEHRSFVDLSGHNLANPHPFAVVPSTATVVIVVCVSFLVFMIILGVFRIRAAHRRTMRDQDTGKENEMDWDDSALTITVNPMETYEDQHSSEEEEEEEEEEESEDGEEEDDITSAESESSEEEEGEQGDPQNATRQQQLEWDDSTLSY"}, "[2]": {"test_system": "T2, Alcadein β", "T2 sequence": "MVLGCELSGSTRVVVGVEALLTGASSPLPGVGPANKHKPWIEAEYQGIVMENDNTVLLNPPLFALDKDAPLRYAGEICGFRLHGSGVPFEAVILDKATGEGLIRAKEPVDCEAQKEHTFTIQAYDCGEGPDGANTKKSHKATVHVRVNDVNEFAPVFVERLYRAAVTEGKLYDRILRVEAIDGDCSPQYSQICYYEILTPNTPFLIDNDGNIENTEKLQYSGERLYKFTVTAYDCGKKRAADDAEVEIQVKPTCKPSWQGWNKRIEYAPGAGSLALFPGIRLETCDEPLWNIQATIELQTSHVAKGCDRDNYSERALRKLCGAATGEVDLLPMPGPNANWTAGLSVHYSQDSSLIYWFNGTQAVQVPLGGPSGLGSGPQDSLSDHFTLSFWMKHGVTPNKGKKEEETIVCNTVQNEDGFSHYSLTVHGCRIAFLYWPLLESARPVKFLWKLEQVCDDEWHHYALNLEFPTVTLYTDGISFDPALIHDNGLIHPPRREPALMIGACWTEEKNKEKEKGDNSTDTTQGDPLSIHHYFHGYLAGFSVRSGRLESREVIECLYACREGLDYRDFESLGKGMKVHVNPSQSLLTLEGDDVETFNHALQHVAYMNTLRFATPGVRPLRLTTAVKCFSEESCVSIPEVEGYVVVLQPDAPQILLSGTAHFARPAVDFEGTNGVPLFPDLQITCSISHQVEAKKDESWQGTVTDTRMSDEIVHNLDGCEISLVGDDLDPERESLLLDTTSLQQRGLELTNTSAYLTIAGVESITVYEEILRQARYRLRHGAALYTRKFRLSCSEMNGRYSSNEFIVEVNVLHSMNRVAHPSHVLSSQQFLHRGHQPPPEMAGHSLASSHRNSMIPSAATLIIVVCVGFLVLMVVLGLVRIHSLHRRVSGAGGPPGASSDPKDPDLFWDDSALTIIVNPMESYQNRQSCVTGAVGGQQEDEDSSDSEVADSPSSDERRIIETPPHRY"}, "[3]": {"test_system": "T3, Alcadein γ", "T3 sequence": "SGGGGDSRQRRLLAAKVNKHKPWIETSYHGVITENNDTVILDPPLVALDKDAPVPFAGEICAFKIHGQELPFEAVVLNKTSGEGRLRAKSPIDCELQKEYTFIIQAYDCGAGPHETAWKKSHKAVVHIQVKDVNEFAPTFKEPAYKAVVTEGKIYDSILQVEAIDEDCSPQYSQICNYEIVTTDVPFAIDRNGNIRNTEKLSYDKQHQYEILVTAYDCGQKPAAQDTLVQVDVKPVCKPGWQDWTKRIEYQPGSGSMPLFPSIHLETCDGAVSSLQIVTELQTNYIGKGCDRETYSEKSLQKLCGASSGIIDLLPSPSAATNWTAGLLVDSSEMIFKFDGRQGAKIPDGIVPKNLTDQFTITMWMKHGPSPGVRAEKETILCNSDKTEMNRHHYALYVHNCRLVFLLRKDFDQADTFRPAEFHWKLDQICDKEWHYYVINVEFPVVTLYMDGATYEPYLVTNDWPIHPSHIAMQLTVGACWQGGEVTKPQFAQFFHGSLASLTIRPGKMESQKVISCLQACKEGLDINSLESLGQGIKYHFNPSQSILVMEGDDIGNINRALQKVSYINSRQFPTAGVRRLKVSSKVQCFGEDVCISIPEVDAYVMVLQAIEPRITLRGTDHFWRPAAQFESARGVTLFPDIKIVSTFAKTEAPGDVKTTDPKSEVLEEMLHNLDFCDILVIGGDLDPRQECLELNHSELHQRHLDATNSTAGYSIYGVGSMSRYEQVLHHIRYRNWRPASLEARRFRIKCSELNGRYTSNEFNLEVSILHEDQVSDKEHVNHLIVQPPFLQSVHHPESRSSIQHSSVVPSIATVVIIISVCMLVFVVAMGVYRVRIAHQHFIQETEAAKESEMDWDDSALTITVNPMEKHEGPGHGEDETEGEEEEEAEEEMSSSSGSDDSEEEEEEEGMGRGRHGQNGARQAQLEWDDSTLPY"}}}
{"substance": "presenilin (endogenous, HEK293 cells)", "values": [{"measurement": "fragments containing the C-terminal (Alcα-ICD) from incubated membrane fractions, Western blot", "setting": "[1]", "result": "such fragments were not detected in the samples to which the presenilin inhibitor was added"}, {"measurement": "fragments containing the C-terminal from incubated membrane fractions, Western blot", "setting": "[2]", "result": "such fragments were not detected in the samples to which the presenilin inhibitor was added"}, {"measurement": "fragments containing the C-terminal from incubated membrane fractions, Western blot", "setting": "[3]", "result": "such fragments were not detected in the samples to which the presenilin inhibitor was added"}]}
